Measurements from patent US20240200091A1, “USE OF PROTOPORPHYRINOGEN OXIDASE” (BEIJING DABEINONG BIOTECHNOLOGY CO., LTD., priority 2021, published 2024).

Assays:
Type in all cases: in vivo
[1] = test system: transgenic soybean plants; test: saflufenacil tolerance of transgenic soybean plants (spray, grade of pesticide damage); design: key to damage levels rated at grade: grade 0 means that the growth status of plants is essentially consistent with those sprayed with the blank solvent (water); grade 1 means that the average of the damage levels of plants is less than 10%; grade 2 means that the average of the damage levels of plants is greater than 100%; grade 3 means that the average of the damage levels of plants is 100%; conditions: for The grade of pesticide damage/plant: grade 0 / The grade of pesticide damage/plant: grade 1 / The grade of pesticide damage/plant: grade 2 / The grade of pesticide damage/plant: grade 3: 7 DAT, number of plants of 16 per genotype, grades
[2] = test system: Arabidopsis thaliana T1 plants; test: sulfentrazone tolerance of transgenic Arabidopsis thaliana T1 plants (spray, grade of pesticide damage); conditions: 7 DAT, number of plants of 24 per genotype, grades
How it was run: (§1)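 Graded 0–3 by injured-to-total leaf area 7 days after spraying, with grades 0–1 rated highly resistant. Plants (24 per genotype, 18 days old) received water or 1× and 4× field rates (sulfentrazone 1× and 2×, 450/900 g ai/ha) of each herbicide.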

[3] = test system: transgenic soybean plants; test: flumioxazin tolerance of transgenic soybean plants (spray, grade of pesticide damage); conditions: for The grade of pesticide damage/plant: grade 0 / The grade of pesticide damage/plant: grade 1 / The grade of pesticide damage/plant: grade 2 / The grade of pesticide damage/plant: grade 3: 7 DAT, number of plants of 16 per genotype, grades
[4] = test system: transgenic soybean plants; test: oxyfluorfen tolerance of transgenic soybean plants (spray, grade of pesticide damage); conditions: for The grade of pesticide damage/plant: grade 0 / The grade of pesticide damage/plant: grade 1 / The grade of pesticide damage/plant: grade 2 / The grade of pesticide damage/plant: grade 3: 7 DAT, number of plants of 16 per genotype, grades; for tolerance to oxyfluorfen: soybean
[5] = test system: Arabidopsis thaliana T1 plants; test: flumioxazin tolerance of transgenic Arabidopsis thaliana T1 plants (spray, grade of pesticide damage); conditions: 7 DAT, number of plants of 24 per genotype, grades
How it was run: as §1

[6] = test system: Arabidopsis thaliana T1 plants; test: oxyfluorfen tolerance of transgenic Arabidopsis thaliana T1 plants (spray, grade of pesticide damage); conditions: 7 DAT, number of plants of 24 per genotype, grades
How it was run: as §1

[7] = test system: Arabidopsis thaliana T1 plants; test: saflufenacil tolerance of transgenic Arabidopsis thaliana T1 plants (spray, grade of pesticide damage); conditions: 7 DAT, number of plants of 24 per genotype, grades
How it was run: as §1

B1: PPO12A: nucleotide sequence encoding microbial protoporphyrinogen oxidase PPO12 (SEQ ID NO:12), Arabidopsis thaliana/soybean common codon usage bias (nucleic acid)
DNA: ATGAAGAAAGCTCTTTTCCTGTACAGCTCGAGAGAAGGCCAGACAAAAAAGATTCTCAACTACATAGAAGGAGAGTTATCAAATTTTGAATGTGAATTGGTTGACCTTCACACGCTTGATGCTATTGATTTCTCCGTCTATGATCGGGTGCTCATTGGTGCTTCTATACGATATGGTCATTTGAACAAGAAGCTTTATCAGTTTATAGAGAACAACAGACAACAACTAGAGAATCATACCAAAGTTGCCTTCTTCTGCGTCAATCTTACTGCAAGGAAAGAAGATCAAGGAAAAGACACTCCTGAGGGGAGTGTTTACATCCAGAAATTTCTCAAGAAATCACCATGGCAACCGAAGTTGATTGGAGTTTTCGCGGGGGCATTATACTACCCTCGTTATGGATTCTTTGATAAGATGATGATCAAACTCATCATGACTTTAACTGATGGTGAAACCGACACAACAAAGGAAGTGGAGTATACAAATTGGAAAAAAGTATCTTTGTTTGCAAAGAAGTTTGCTGAGCTGTGA
modifications: The nucleotide sequence of PPO12A
0: damage levels rated at grade ([1]; soybean, saflufenacil at two-fold field concentration (50 g ai/ha)) | The grade of pesticide: grade 1 ([2]; sulfentrazone 450 g ai/ha (1×)) | The grade of pesticide: grade 2 ([2]; sulfentrazone 450 g ai/ha (1×)) | The grade of pesticide: grade 3 ([2]; sulfentrazone 450 g ai/ha (1×)) | The grade of pesticide: grade 2 ([2]; sulfentrazone 900 g ai/ha (2×)) | The grade of pesticide: grade 3 ([2]; sulfentrazone 900 g ai/ha (2×))
20 plant: The grade of pesticide damage/plant: grade 0 ([6]; oxyfluorfen 720 g ai/ha (4×))
24: The grade of pesticide: grade 0 ([2]; sulfentrazone 450 g ai/ha (1×))
high-resistant tolerance: tolerance to saflufenacil ([1]; soybean, saflufenacil at four-fold field concentration (100 g ai/ha)) | tolerance to flumioxazin ([3]; soybean, flumioxazin at different concentrations (120 and 240 g ai/ha)) | tolerance to oxyfluorfen ([4]; oxyfluorfen at four-fold field concentration (720 g ai/ha)) | tolerance to oxyfluorfen ([4]; oxyfluorfen at two-fold field concentration (360 g ai/ha))
1: The grade of pesticide: grade 1 ([2]; sulfentrazone 900 g ai/ha (2×))
4 plant: The grade of pesticide damage/plant: grade 1 ([6]; oxyfluorfen 720 g ai/ha (4×))
24 plant: The grade of pesticide damage/plant: grade 0 ([5]; flumioxazin 60 g ai/ha (1×)) | The grade of pesticide damage/plant: grade 0 ([5]; flumioxazin 240 g ai/ha (4×)) | The grade of pesticide damage/plant: grade 0 ([6]; oxyfluorfen 180 g ai/ha (1×)) | The grade of pesticide damage/plant: grade 0 ([7]; saflufenacil 25 g ai/ha (1×)) | The grade of pesticide damage/plant: grade 1 ([7]; saflufenacil 100 g ai/ha (4×))
different extents of tolerance: tolerance to saflufenacil ([1]; soybean, saflufenacil, compared with the control vector and CK)
0 plant: The grade of pesticide damage/plant: grade 1 ([1]; saflufenacil 50 g ai/ha (2×)) | The grade of pesticide damage/plant: grade 2 ([1]; saflufenacil 50 g ai/ha (2×)) | The grade of pesticide damage/plant: grade 3 ([1]; saflufenacil 50 g ai/ha (2×)) | The grade of pesticide damage/plant: grade 1 ([1]; saflufenacil 100 g ai/ha (4×)) | The grade of pesticide damage/plant: grade 2 ([1]; saflufenacil 100 g ai/ha (4×)) | The grade of pesticide damage/plant: grade 3 ([1]; saflufenacil 100 g ai/ha (4×)) | The grade of pesticide damage/plant: grade 1 ([3]; flumioxazin 120 g ai/ha (2×)) | The grade of pesticide damage/plant: grade 2 ([3]; flumioxazin 120 g ai/ha (2×)) | The grade of pesticide damage/plant: grade 3 ([3]; flumioxazin 120 g ai/ha (2×)) | The grade of pesticide damage/plant: grade 1 ([3]; flumioxazin 240 g ai/ha (4×)) | The grade of pesticide damage/plant: grade 2 ([3]; flumioxazin 240 g ai/ha (4×)) | The grade of pesticide damage/plant: grade 3 ([3]; flumioxazin 240 g ai/ha (4×)) | The grade of pesticide damage/plant: grade 1 ([4]; oxyfluorfen 360 g ai/ha (2×)) | The grade of pesticide damage/plant: grade 2 ([4]; oxyfluorfen 360 g ai/ha (2×)) | The grade of pesticide damage/plant: grade 3 ([4]; oxyfluorfen 360 g ai/ha (2×)) | The grade of pesticide damage/plant: grade 1 ([4]; oxyfluorfen 720 g ai/ha (4×)) | The grade of pesticide damage/plant: grade 2 ([4]; oxyfluorfen 720 g ai/ha (4×)) | The grade of pesticide damage/plant: grade 3 ([4]; oxyfluorfen 720 g ai/ha (4×)) | The grade of pesticide damage/plant: grade 1 ([5]; flumioxazin 60 g ai/ha (1×)) | The grade of pesticide damage/plant: grade 2 ([5]; flumioxazin 60 g ai/ha (1×)) | The grade of pesticide damage/plant: grade 3 ([5]; flumioxazin 60 g ai/ha (1×)) | The grade of pesticide damage/plant: grade 1 ([5]; flumioxazin 240 g ai/ha (4×)) | The grade of pesticide damage/plant: grade 2 ([5]; flumioxazin 240 g ai/ha (4×)) | The grade of pesticide damage/plant: grade 3 ([5]; flumioxazin 240 g ai/ha (4×)) | The grade of pesticide damage/plant: grade 1 ([6]; oxyfluorfen 180 g ai/ha (1×)) | The grade of pesticide damage/plant: grade 2 ([6]; oxyfluorfen 180 g ai/ha (1×)) | The grade of pesticide damage/plant: grade 3 ([6]; oxyfluorfen 180 g ai/ha (1×)) | The grade of pesticide damage/plant: grade 2 ([6]; oxyfluorfen 720 g ai/ha (4×)) | The grade of pesticide damage/plant: grade 3 ([6]; oxyfluorfen 720 g ai/ha (4×)) | The grade of pesticide damage/plant: grade 1 ([7]; saflufenacil 25 g ai/ha (1×)) | The grade of pesticide damage/plant: grade 2 ([7]; saflufenacil 25 g ai/ha (1×)) | The grade of pesticide damage/plant: grade 3 ([7]; saflufenacil 25 g ai/ha (1×)) | The grade of pesticide damage/plant: grade 0 ([7]; saflufenacil 100 g ai/ha (4×)) | The grade of pesticide damage/plant: grade 2 ([7]; saflufenacil 100 g ai/ha (4×)) | The grade of pesticide damage/plant: grade 3 ([7]; saflufenacil 100 g ai/ha (4×))
23: The grade of pesticide: grade 0 ([2]; sulfentrazone 900 g ai/ha (2×))
16 plant: The grade of pesticide damage/plant: grade 0 ([1]; saflufenacil 50 g ai/ha (2×)) | The grade of pesticide damage/plant: grade 0 ([1]; saflufenacil 100 g ai/ha (4×)) | The grade of pesticide damage/plant: grade 0 ([3]; flumioxazin 120 g ai/ha (2×)) | The grade of pesticide damage/plant: grade 0 ([3]; flumioxazin 240 g ai/ha (4×)) | The grade of pesticide damage/plant: grade 0 ([4]; oxyfluorfen 360 g ai/ha (2×)) | The grade of pesticide damage/plant: grade 0 ([4]; oxyfluorfen 720 g ai/ha (4×))
